Test results published in patent US20110059095A1 (Regeneron, published 2011).
One block for each binder: values may come before it.

How the values were obtained:
[1] = molecular target: T1, C-terminal biotinylated human PAR-2 peptide SEQ ID NO:871 (wild-type) (human, not fully specified; C-terminal biotin (K-B)); assay: BLI Exp1
T1 construct: also called WT peptide
T1 peptide: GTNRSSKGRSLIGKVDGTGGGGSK
Procedure: (§1) In order to more particularly identify the amino acids of PAR-2 with which the PAR-2 antibodies interact, an alanine scanning study was carried out using peptides comprising the activating PAR-2 protease cleavage site.
(§2) The ability of each peptide mutant to bind to PAR-2 antibodies was measured using biolayer interferometry (Octet Red; ForteBio). Each peptide (2.5 μg/ml) was captured on streptavidin coated biosensor tips (Octet SA sensor) for 10 seconds. To measure binding and dissociation between each peptide and PAR-2 antibody, the peptide-coated biosensors were contacted with 200 nM solutions of PAR-2 antibodies for 5 minutes (binding) followed by transfer to buffer with no antibody for 10 min (dissociation). […] The results are expressed as percent binding and percent T_{1/2} relative to WT peptide (Tables 24-28).

[2] = molecular target: T2, C-terminal biotinylated human PAR-2 peptide SEQ ID NO:874 (Ser-37 to Ala) (human, not fully specified; C-terminal biotin (K-B)); assay: BLI Exp1
T2 construct: alanine-scan mutant
T2 peptide: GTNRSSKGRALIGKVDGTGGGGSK
Procedure: as §1, §2

[3] = molecular target: T3, C-terminal biotinylated human PAR-2 peptide SEQ ID NO:877 (Gly-40 to Ala) (human, not fully specified; C-terminal biotin (K-B)); assay: BLI Exp1
T3 construct: alanine-scan mutant
T3 peptide: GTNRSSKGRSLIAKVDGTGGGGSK
Procedure: as §1, §2

[4] = molecular target: T4, C-terminal biotinylated human PAR-2 peptide SEQ ID NO:879 (Val-42 to Ala) (human, not fully specified; C-terminal biotin (K-B)); assay: BLI Exp1
T4 construct: alanine-scan mutant
T4 peptide: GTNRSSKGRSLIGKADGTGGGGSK
Procedure: as §1, §2

[5] = molecular target: T5, C-terminal biotinylated human PAR-2 peptide SEQ ID NO:880 (Asp-43 to Ala) (human, not fully specified; C-terminal biotin (K-B)); assay: BLI Exp1
T5 construct: alanine-scan mutant
T5 peptide: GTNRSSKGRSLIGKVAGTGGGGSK
Procedure: as §1, §2

[6] = molecular target: T6, C-terminal biotinylated human PAR-2 peptide SEQ ID NO:881 (Gly-44 to Ala) (human, not fully specified; C-terminal biotin (K-B)); assay: BLI Exp1
T6 construct: alanine-scan mutant
T6 peptide: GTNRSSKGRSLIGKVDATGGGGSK
Procedure: as §1, §2

[7] = molecular target: T7, C-terminal biotinylated human PAR-2 peptide SEQ ID NO:882 (Thr-45 to Ala) (human, not fully specified; C-terminal biotin (K-B)); assay: BLI Exp1
T7 construct: alanine-scan mutant
T7 peptide: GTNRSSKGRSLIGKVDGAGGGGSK
Procedure: as §1, §2

[8] = molecular target: T1, C-terminal biotinylated human PAR-2 …; assay: BLI Exp2
Procedure: as §1, §2

[9] = molecular target: T8, C-terminal biotinylated human PAR-2 peptide SEQ ID NO:873 (Arg-36 to Ala) (human, not fully specified; C-terminal biotin (K-B)); assay: BLI Exp2
T8 construct: alanine-scan mutant
T8 peptide: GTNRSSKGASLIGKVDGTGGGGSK
Procedure: as §1, §2

[10] = molecular target: T2, C-terminal biotinylated human PAR-2 …; assay: BLI Exp2
Procedure: as §1, §2

[11] = molecular target: T9, C-terminal biotinylated human PAR-2 peptide SEQ ID NO:875 (Leu-38 to Ala) (human, not fully specified; C-terminal biotin (K-B)); assay: BLI Exp2
T9 construct: alanine-scan mutant
T9 peptide: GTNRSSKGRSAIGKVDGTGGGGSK
Procedure: as §1, §2

[12] = molecular target: T10, C-terminal biotinylated human PAR-2 peptide SEQ ID NO:876 (Ile-39 to Ala) (human, not fully specified; C-terminal biotin (K-B)); assay: BLI Exp2
T10 construct: alanine-scan mutant
T10 peptide: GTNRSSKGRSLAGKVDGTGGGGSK
Procedure: as §1, §2

[13] = molecular target: T3, C-terminal biotinylated human PAR-2 …; assay: BLI Exp2
Procedure: as §1, §2

[14] = molecular target: T11, C-terminal biotinylated human PAR-2 peptide SEQ ID NO:878 (Lys-41 to Ala) (human, not fully specified; C-terminal biotin (K-B)); assay: BLI Exp2
T11 construct: alanine-scan mutant
T11 peptide: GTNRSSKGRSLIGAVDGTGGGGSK
Procedure: as §1, §2

[15] = molecular target: T5, C-terminal biotinylated human PAR-2 …; assay: BLI Exp2
Procedure: as §1, §2

[16] = molecular target: T6, C-terminal biotinylated human PAR-2 …; assay: BLI Exp2
Procedure: as §1, §2

[17] = molecular target: T7, C-terminal biotinylated human PAR-2 …; assay: BLI Exp2
Procedure: as §1, §2

[18] = molecular target: T12, C-terminal biotinylated human PAR-2 14-mer peptide SEQ ID NO:885 (Val-42 to Ala) (human, not fully specified; C-terminal biotin (K-B)); assay: BLI Exp2
T12 peptide: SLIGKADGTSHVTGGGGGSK
Procedure: as §1, §2

[19] = molecular target: T13, C-terminal biotinylated human PAR-2 14-mer peptide SEQ ID NO:886 (Asp-43 to Ala) (human, not fully specified; C-terminal biotin (K-B)); assay: BLI Exp2
T13 peptide: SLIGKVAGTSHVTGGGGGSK
Procedure: as §1, §2

full length human PAR-2 = full length human PAR-2 (human, UniProt P55085 26-397); assay: cell-based or functional assay
full length human PAR-2, sequence (P55085 26-397 G138A limits assumed): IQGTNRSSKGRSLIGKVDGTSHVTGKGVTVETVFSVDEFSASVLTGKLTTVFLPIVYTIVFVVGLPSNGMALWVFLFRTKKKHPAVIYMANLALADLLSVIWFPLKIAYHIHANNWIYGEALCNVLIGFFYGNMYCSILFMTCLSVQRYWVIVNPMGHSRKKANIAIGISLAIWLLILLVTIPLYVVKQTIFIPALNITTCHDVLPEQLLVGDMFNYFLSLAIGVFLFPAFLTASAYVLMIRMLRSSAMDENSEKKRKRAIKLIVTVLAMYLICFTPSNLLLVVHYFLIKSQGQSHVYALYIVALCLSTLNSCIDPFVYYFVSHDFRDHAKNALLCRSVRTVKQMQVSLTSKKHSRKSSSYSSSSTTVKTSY

% Rel Binding [1]: 100%
% Rel T1/2 [1]: 100%
% Rel Binding [2]: 45%
% Rel T1/2 [2]: 7%
% Rel Binding [3]: 101%
% Rel T1/2 [3]: 33%
% Rel Binding [4]: 36%
% Rel T1/2 [4]: 1%
% Rel Binding [5]: 18%
% Rel T1/2 [5]: 36%
% Rel Binding [6]: 67%
% Rel T1/2 [6]: 117%
% Rel Binding [7]: 65%
% Rel T1/2 [7]: 129%
% Rel Binding [8]: 100%
% Rel T1/2 [8]: 100%
% Rel Binding [9]: 105%
% Rel T1/2 [9]: 90%
% Rel Binding [10]: 56%
% Rel T1/2 [10]: 3%
% Rel Binding [11]: 19%
% Rel T1/2 [11]: 0%
% Rel Binding [12]: 14%
% Rel T1/2 [12]: 0%
% Rel Binding [13]: 92%
% Rel T1/2 [13]: 15%
% Rel Binding [14]: 109%
% Rel T1/2 [14]: 49%
% Rel Binding [15]: 5%
% Rel T1/2 [15]: 4%
% Rel Binding [16]: 102%
% Rel T1/2 [16]: 124%
% Rel Binding [17]: 91%
% Rel T1/2 [17]: 94%
% Rel Binding [18]: 19%
% Rel T1/2 [18]: 0%
binding result [19]: no binding (tested: 200 nM antibody)
IC50, NF-kB-luciferase, 10 nM Human Trypsin 1 (full length human PAR-2): 7.4 nM
IC50, NF-kB-luciferase, 200 nM Factor Xa (full length human PAR-2): 5.3 nM
IC50, NF-kB-luciferase, 750 nM Lung Tryptase (full length human PAR-2): 1.1 nM
B1: H4H581P (antibody, human IgG4, V domains shown)
VH: QVQLVESGGGVVQPGRSLRLSCVASGFTFSRYGIHWVRQAPGKGLEWVIVISYDGINKYYADSVKGRFTISRDNSKNTVYLQMNSLRAEDTAVYYCAKGDFWSGYFDYWGQGTLVTVSS
VL: DIVMTQTPLSSPVTLGQPASISCRSSQSLVHSDGNTYLSWLHQRPGQPPRLLIYKISNRFSGVPDRFSGSGAGTDFTLQISRVEAEDVGIYYCMQATQFPTFGGGTKVEIK
notes: also called mAb H4H581P; H1H581P variable regions

% Rel Binding [1]: 100%
% Rel T1/2 [1]: 100%
% Rel Binding [2]: 119%
% Rel T1/2 [2]: 100%
% Rel Binding [3]: 30%
% Rel T1/2 [3]: 1%
% Rel Binding [4]: 74%
% Rel T1/2 [4]: 1%
% Rel Binding [5]: 35%
% Rel T1/2 [5]: 4%
% Rel Binding [6]: 81%
% Rel T1/2 [6]: 1%
% Rel Binding [7]: 125%
% Rel T1/2 [7]: 94%
% Rel Binding [8]: 100%
% Rel T1/2 [8]: 100%
% Rel Binding [9]: 115%
% Rel T1/2 [9]: 180%
% Rel Binding [10]: 93%
% Rel T1/2 [10]: 70%
% Rel Binding [11]: 105%
% Rel T1/2 [11]: 42%
% Rel Binding [12]: 85%
% Rel T1/2 [12]: 8%
% Rel Binding [13]: 30%
% Rel T1/2 [13]: 0%
% Rel Binding [14]: 121%
% Rel T1/2 [14]: 60%
% Rel Binding [15]: 8%
% Rel T1/2 [15]: 5%
% Rel Binding [16]: 67%
% Rel T1/2 [16]: 1%
% Rel Binding [17]: 121%
% Rel T1/2 [17]: 33%
% Rel Binding [18]: 83%
% Rel T1/2 [18]: 0%
binding result [19]: no binding (tested: 200 nM antibody)
IC50, NF-kB-luciferase, 10 nM Human Trypsin 1 (full length human PAR-2): 42.7 nM
IC50, NF-kB-luciferase, 200 nM Factor Xa (full length human PAR-2): 17.1 nM
IC50, NF-kB-luciferase, 750 nM Lung Tryptase (full length human PAR-2): 1.6 nM
B2: H4H588N (antibody, human IgG4, V domains shown)
VH: EVQLLESGGGLVQPGGSLRLSCAASGFTFSSYAMTWVRQAPGKGLYWVSAISGGRGSAYYADSVKGRFTISRDNSKNTLYLQMNSLRAEDTAVYYCAKEGDSGYDLAYWGRGTLVTVSS
VL: DIQMTQSPSSLSASVGDRVTITCRARQGISNNLAWLQQKPGKAPKSLIYAASSLQSGIPSKFSGSGSGTYFTLTISSLQPEDFATYYCQQYKSSPLTFGGGTKVEIK
notes: also called H2M588N variable regions
